The subject of the data set is H-NS (Escherichia coli). The data set is described as follows: EMSA. Particulars: 40 mM HEPES-KOH pH 8.0, 100 mM K-glutamate, 0.022% NP-40, 100 µg/ml BSA, 10% glycerol, 2 or 8 mM Mg aspartate, 20 °C 20 min; 3% native PAGE in 0.5x TBE + 2.5% ….

As for “λPR-bgl template (linear pMK110 PCR fragment)”, the K half was 2 nM.

(Values after PMC4337669.)
